PMC9973270, “RdmA Is a Key Regulator in Autoinduction of DSF Quorum Quenching in Pseudomonas nitroreducens HS-18” (mBio, 2022)

Columns and labels:
RdmA = biological target: T1, RdmA (Pseudomonas nitroreducens, UniProt A0ABS0KS77); assay: EMSA, inhibition of RdmA binding to biotin-labelled dmgA promoter; conditions: RdmA 2 uM preincubated with DSF 30 min at 30 C before promoter fragment F1 (30 min, 22 C); solvent methanol
T1 construct: gene I5I61_25840; full length, 206 residues; N-terminal His6 tag, vector pET32a, expressed in E. coli BL21(DE3); dimer proposed
T1 sequence (A0ABS0KS77 1-206): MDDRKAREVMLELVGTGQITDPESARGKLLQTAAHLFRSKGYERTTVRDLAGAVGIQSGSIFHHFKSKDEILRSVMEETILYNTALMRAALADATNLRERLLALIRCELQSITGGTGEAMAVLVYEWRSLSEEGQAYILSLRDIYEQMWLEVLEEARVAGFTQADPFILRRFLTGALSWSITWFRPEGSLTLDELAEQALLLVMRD

[1] = test system: T2, RdmA (Pseudomonas nitroreducens HS-18), ORF:ff03b8a4; assay: EMSA; conditions: LightShift chemiluminescent EMSA kit (buffer per manufacturer; pH and salt not stated), 10 uL, 2 nM biotin-DNA (20 fmol; Fig 5 legend says 10 nM), 0-4 uM RdmA …
T2 sequence: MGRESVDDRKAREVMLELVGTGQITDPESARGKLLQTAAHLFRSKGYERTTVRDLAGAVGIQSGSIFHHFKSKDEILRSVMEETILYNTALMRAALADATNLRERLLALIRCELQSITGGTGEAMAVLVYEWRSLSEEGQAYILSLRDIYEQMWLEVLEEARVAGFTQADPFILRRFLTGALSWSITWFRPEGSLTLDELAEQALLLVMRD

Compound	concentration giving complete inhibition of DNA binding (RdmA) [mM]	binding [1]
CC(C)CCCCCCC/C=C\C(=O)O [DSF, cis-11-methyl-2-dodecenoic acid]	0.9	–
GCTTTCTCTCCCCATGGGTCCCATCTGGCCACCTTGCTCAGGGCAATTCATCGAATCGCCCCGCAAGTGCTTGTGTTGTCTGACGAAATGTAAGCCCGCGAGTGCCAACCA (double strand) [PdmgA F4]	–	no binding
GCTTTCTCTCCCCATGGGTCCCATCTGGCCACCTTGCTCAGGGCAATTCATCGAATCGCCCCGCAAGTGCTTGTGTTGTCTGACGAAATGTAAGCCCGCGAGTGCCAACCAAGCAAGCGCTTGG (double strand) [PdmgA F3]	–	binds more weakly
GCTTTCTCTCCCCATGGGTCCCATCTGGCCACCTTGCTCAGGGCAATTCATCGAATCGCCCCGCAAGTGCTTGTGTTGTCTGACGAAATGTAAGCCCGCGAGTGCCAACCAAGCAAGCGCTTGGCCATCCAATGGTTGGGGTAGTCATCGACTCGGGGCTTTTCAACCAAGCGCTTGCT (double strand) [PdmgA F2]	–	binds more weakly
